In paper PMC10786891, “Massively parallel profiling of RNA-targeting CRISPR-Cas13d”:
Positions count from the first letter of the chain named. Numbers in names are those of the source.

T1: EsCas13d, nuclease-dead (Eubacterium siraeum, UniProt B0MS50, R295A;H300A;R849A;H854A)
T1 sequence: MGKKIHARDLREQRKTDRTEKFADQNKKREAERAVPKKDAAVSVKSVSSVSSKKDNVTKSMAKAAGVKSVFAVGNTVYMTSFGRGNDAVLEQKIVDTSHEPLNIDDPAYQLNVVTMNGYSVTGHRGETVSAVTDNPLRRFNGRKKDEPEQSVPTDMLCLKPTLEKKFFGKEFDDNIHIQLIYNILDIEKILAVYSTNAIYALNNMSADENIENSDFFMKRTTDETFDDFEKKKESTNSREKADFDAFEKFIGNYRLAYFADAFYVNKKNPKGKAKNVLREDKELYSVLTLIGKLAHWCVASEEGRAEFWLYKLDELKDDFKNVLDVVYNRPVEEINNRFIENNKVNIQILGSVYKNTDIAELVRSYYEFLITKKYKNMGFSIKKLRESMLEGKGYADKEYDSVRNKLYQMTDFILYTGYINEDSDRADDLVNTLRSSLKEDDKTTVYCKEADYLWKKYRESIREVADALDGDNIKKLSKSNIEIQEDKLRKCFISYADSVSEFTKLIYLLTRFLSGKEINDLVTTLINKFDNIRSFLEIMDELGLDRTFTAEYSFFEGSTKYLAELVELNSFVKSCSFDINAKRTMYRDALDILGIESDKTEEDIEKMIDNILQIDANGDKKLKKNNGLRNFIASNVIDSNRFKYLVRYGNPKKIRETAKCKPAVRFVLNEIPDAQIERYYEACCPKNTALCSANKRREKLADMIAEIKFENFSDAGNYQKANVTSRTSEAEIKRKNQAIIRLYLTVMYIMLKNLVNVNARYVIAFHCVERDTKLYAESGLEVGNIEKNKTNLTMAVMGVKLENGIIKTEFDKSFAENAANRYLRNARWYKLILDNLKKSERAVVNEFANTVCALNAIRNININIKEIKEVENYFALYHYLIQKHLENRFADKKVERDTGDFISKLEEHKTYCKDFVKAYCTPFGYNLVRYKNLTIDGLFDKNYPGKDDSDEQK

B1: target 1 MT 5'PFS GUA 3'PFS GGU (mixed)
RNA 1: CACCCGUGCAAAAAUGCAGGGGUCUAAAACUGAGCGGAUAACCUCUCUAUGG
RNA 2: GGGAAUGGAUCCACAUCUACGAAUUCGUACCAUAGAGAGGUUAUCCGCUCAGGUAGAUCGGAAGAGCACACGU
B2: target 1 MT 5'PFS GUA 3'PFS GGC (mixed)
RNA 1: B1 RNA 1
RNA 2: B1 RNA 2 with U54C
B3: target 1 MT 5'PFS GUA 3'PFS GGA (mixed)
RNA 1: B1 RNA 1
RNA 2: B1 RNA 2 with U54A
B4: target 1 insU 3' of 13,insA 3' of 13 (mixed)
RNA 1: B1 RNA 1
RNA 2: GGGAAUGGAUCCACAUCUACGAAUUCGUACCAUAGAGAGUAGUUAUCCGCUCACCGAGAUCGGAAGAGCACACGU
B5: target 1 MT 5'PFS GUA 3'PFS GGG (mixed)
RNA 1: B1 RNA 1
RNA 2: B1 RNA 2 with U54G
B6: target 1 MT 5'PFS GCU 3'PFS UUU (mixed)
RNA 1: B1 RNA 1
RNA 2: B1 RNA 2 with U28C, A29U, G52U, G53U
B7: target 1 MT 5'PFS GUA 3'PFS UGU (mixed)
RNA 1: B1 RNA 1
RNA 2: B1 RNA 2 with G52U
B8: target 1 MT 5'PFS GAG 3'PFS AGA (mixed)
RNA 1: B1 RNA 1
RNA 2: B1 RNA 2 with U28A, A29G, G52A, U54A
B9: target 1 MT 5'PFS GAG 3'PFS AGU (mixed)
RNA 1: B1 RNA 1
RNA 2: B1 RNA 2 with U28A, A29G, G52A
B10: target 1 MT 5'PFS AUG 3'PFS CCC (mixed)
RNA 1: B1 RNA 1
RNA 2: B1 RNA 2 with G27A, A29G, G52C, G53C, U54C
B11: target 1 MT 5'PFS GCA 3'PFS UAU (mixed)
RNA 1: B1 RNA 1
RNA 2: B1 RNA 2 with U28C, G52U, G53A
B12: target 1 MT 5'PFS GCA 3'PFS UAA (mixed)
RNA 1: B1 RNA 1
RNA 2: B1 RNA 2 with U28C, G52U, G53A, U54A
B13: target 1 MT 5'PFS GCA 3'PFS UAC (mixed)
RNA 1: B1 RNA 1
RNA 2: B1 RNA 2 with U28C, G52U, G53A, U54C
B14: target 1 MT 5'PFS GCA 3'PFS UAG (mixed)
RNA 1: B1 RNA 1
RNA 2: B1 RNA 2 with U28C, G52U, G53A, U54G
B15: target 1 G5C,A16G (mixed)
RNA 1: B1 RNA 1
RNA 2: B1 RNA 2 with A36G, G47C, G52C, G53C, U54G
B16: target 1 MT 5'PFS GUA 3'PFS UAU (mixed)
RNA 1: B1 RNA 1
RNA 2: B1 RNA 2 with G52U, G53A
B17: target 1 MT 5'PFS GUA 3'PFS UAG (mixed)
RNA 1: B1 RNA 1
RNA 2: B1 RNA 2 with G52U, G53A, U54G
B18: target 1 MT 5'PFS CUA 3'PFS AAG (mixed)
RNA 1: B1 RNA 1
RNA 2: B1 RNA 2 with G27C, G52A, G53A, U54G
B19: target 1 MT 5'PFS GUA 3'PFS UAC (mixed)
RNA 1: B1 RNA 1
RNA 2: B1 RNA 2 with G52U, G53A, U54C
B20: target 1 MT 5'PFS GUA 3'PFS UAA (mixed)
RNA 1: B1 RNA 1
RNA 2: B1 RNA 2 with G52U, G53A, U54A
B21: target 1 MT 5'PFS CUA 3'PFS UGA (mixed)
RNA 1: B1 RNA 1
RNA 2: B1 RNA 2 with G27C, G52U, U54A
B22: target 1 MT 5'PFS UUG 3'PFS AUC (mixed)
RNA 1: B1 RNA 1
RNA 2: B1 RNA 2 with G27U, A29G, G52A, G53U, U54C
B23: target 1 MT 5'PFS UUG 3'PFS AUA (mixed)
RNA 1: B1 RNA 1
RNA 2: B1 RNA 2 with G27U, A29G, G52A, G53U, U54A
B24: target 1 MT 5'PFS UUG 3'PFS AUG (mixed)
RNA 1: B1 RNA 1
RNA 2: B1 RNA 2 with G27U, A29G, G52A, G53U, U54G
B25: target 1 MT 5'PFS CUA 3'PFS CGU (mixed)
RNA 1: B1 RNA 1
RNA 2: B1 RNA 2 with G27C, G52C
B26: target 1 insC 3' of 18,insC 3' of 3 (mixed)
RNA 1: B1 RNA 1
RNA 2: GGGAAUGGAUCCACAUCUACGAAUUCGUACCAUACGAGAGGUUAUCCGCUCCACCGAGAUCGGAAGAGCACACGU
B27: target 1 MT 5'PFS UUA 3'PFS CAA (mixed)
RNA 1: B1 RNA 1
RNA 2: B1 RNA 2 with G27U, G52C, G53A, U54A
B28: target 1 MT 5'PFS GAG 3'PFS UGU (mixed)
RNA 1: B1 RNA 1
RNA 2: B1 RNA 2 with U28A, A29G, G52U
B29: target 1 MT 5'PFS UUA 3'PFS CAG (mixed)
RNA 1: B1 RNA 1
RNA 2: B1 RNA 2 with G27U, G52C, G53A, U54G
B30: target 1 MT 5'PFS UGC 3'PFS UCA (mixed)
RNA 1: B1 RNA 1
RNA 2: B1 RNA 2 with G27U, U28G, A29C, G52U, G53C, U54A
B31: target 1 MT 5'PFS UGC 3'PFS UCC (mixed)
RNA 1: B1 RNA 1
RNA 2: B1 RNA 2 with G27U, U28G, A29C, G52U, G53C, U54C
B32: target 1 MT 5'PFS UGC 3'PFS UCG (mixed)
RNA 1: B1 RNA 1
RNA 2: B1 RNA 2 with G27U, U28G, A29C, G52U, G53C, U54G
B33: target 1 MT 5'PFS CUG 3'PFS ACG (mixed)
RNA 1: B1 RNA 1
RNA 2: B1 RNA 2 with G27C, A29G, G52A, G53C, U54G
B34: target 1 MT 5'PFS CUG 3'PFS ACC (mixed)
RNA 1: B1 RNA 1
RNA 2: B1 RNA 2 with G27C, A29G, G52A, G53C, U54C
B35: target 1 MT 5'PFS CUG 3'PFS ACA (mixed)
RNA 1: B1 RNA 1
RNA 2: B1 RNA 2 with G27C, A29G, G52A, G53C, U54A
B36: target 1 MT 5'PFS GUU 3'PFS AGG (mixed)
RNA 1: B1 RNA 1
RNA 2: B1 RNA 2 with A29U, G52A, U54G
B37: target 1 insG 3' of 9,insU 3' of 9 (mixed)
RNA 1: B1 RNA 1
RNA 2: B4 RNA 2 with U40G, A41U, G42U, U43A, U44G, A45U
B38: target 1 MT 5'PFS GUU 3'PFS AGC (mixed)
RNA 1: B1 RNA 1
RNA 2: B1 RNA 2 with A29U, G52A, U54C
B39: target 1 MT 5'PFS GUU 3'PFS AGA (mixed)
RNA 1: B1 RNA 1
RNA 2: B1 RNA 2 with A29U, G52A, U54A

Target: T1, EsCas13d, nuclease-dead
Experiment: crRNA (strand 1, pre-loaded); Mg2+; 40 mM Tris-HCl pH 7.5, 150 mM NaCl, 6 mM MgCl2, 1 mM DTT, 0.1% Tween-20, 0.2 mg/ml BSA; 25 C; 10 min per concentration, then washed
Conditions: tags: His6-TwinStrep-SUMO cleaved; N-terminal SNAP kept (SNAP-Surface 488); label: 3' end held by stalled T7 RNA polymerase

Point of comparison: B38, Kd 15.6 ± 3.35 nM. Against it:
- B1 — within error, 20.7 ± 2 nM
- B2 — 2.2-fold lower, 7.25 ± 0.95 nM
- B3 — within error, 15.8 ± 2.45 nM
- B4 — 3.6-fold lower, 4.35 ± 0.17 nM
- B5 — 2-fold higher, 30.6 ± 3.7 nM
- B6 — 1.5-fold higher, 24.1 ± 3.8 nM
- B7 — within error, 19.1 ± 0.95 nM
- B8 — 2.4-fold higher, 37 ± 13 nM
- B9 — 3-fold higher, 47.5 ± 16.5 nM
- B10 — 2.6-fold higher, ~40.5 nM
- B11 — within error, 10.8 ± 1.45 nM
- B12 — within error, 19 ± 6.5 nM
- B13 — within error, 14 ± 2.55 nM
- B14 — within error, 19.4 ± 4.95 nM
- B15 — 4.2-fold higher, 65 ± 11 nM
- B16 — 1.6-fold lower, 9.75 ± 0.7 nM
- B17 — within error, 13.7 ± 0.9 nM
- B18 — within error, 11.4 ± 4 nM
- B19 — within error, 13.2 ± 1.25 nM
- B20 — within error, 13.8 ± 1.35 nM
- B21 — within error, 22 ± 7.5 nM
- B22 — 2.4-fold higher, 37.5 ± 13 nM
- B23 — 3.8-fold higher, 58.5 ± 20 nM
- B24 — 5.3-fold higher, 83 ± 35 nM
- B25 — within error, 17 ± 6 nM
- B26 — 2.1-fold higher, 32 ± 4 nM
- B27 — 3.1-fold higher, 49 ± 21 nM
- B28 — 4.1-fold higher, 64.5 ± 30.5 nM
- B29 — 3.2-fold higher, 49.5 ± 20 nM
- B30 — within error, 11.5 ± 5.3 nM
- B31 — 1.9-fold higher, 30 ± 10.5 nM
- B32 — within error, 12.1 ± 2.7 nM
- B33 — 2.3-fold lower, 6.85 ± 1.6 nM
- B34 — 2.6-fold lower, 6.1 ± 1.45 nM
- B35 — 1.9-fold lower, 8.25 ± 2.25 nM
- B36 — 4.3-fold higher, 66.5 ± 11.5 nM
- B37 — within error, 17.9 ± 0.9 nM
- B39 — 1.8-fold higher, 27.4 ± 5.25 nM
